Results: the Human Domainome abundance scans (Beltran et al. 2025)

B1: 1-phosphatidylinositol 4,5-bisphosphate phosphodiesterase gamma-2, residues 772 to 827; numbered along this chain, P16885 (parent)
chain: RTVKALYDYKAKRSDELSFCRGALIHNVSKEPGGWWKGDYGTRIQQYFPSNYVEDI

Variants of: B1
Assay: abundance fitness (aPCA) (normalised: wild type 0, dead -1); higher = more abundant; growth selection in yeast, the domain comes from the species named
Conditions: Homo sapiens

Abundance fitness, by site and new letter:
I25: F -0.598 | S -1 | V -0.481 | W -0.723 | R -0.976 | A -0.741 | Q -0.921 | L -0.386
L24: A -0.659 | H -0.335 | P -0.818 | G -0.837 | E -0.083 | C -0.044 | T -0.222 | N -0.212 | V -0.046 | M -0.207 | Q -0.267 | Y 0.041 | R -0.299 | D -0.781 | K -0.215 | W -0.359
G38: R -0.959 | V -0.851 | I -0.765 | T -0.821 | K -1.01 | E -0.595 | S -1 | A -0.83 | L -1.11 | W -0.803
W36: C -0.108 | M -0.108 | T -0.89 | K -0.705 | S 0.22 | D -0.576 | I -0.611 | R -0.724 | A -0.214 | Y -0.368 | F -0.308 | E -0.809 | G -0.58 | L -0.095 | Q -0.839
S29: F 0.151
G22: T -0.872 | C -0.86 | R -0.775 | Y -0.856 | H -0.704 | D -0.236 | F -0.802 | L -1.14 | E -0.418 | W -0.811 | K -0.203 | P -0.688 | V -0.911 | M -0.52 | N -0.364 | S -0.681
E31: T 0.141 | G 0.065 | H -0.265 | W 0.036 | V -0.099 | A -0.1 | K -0.135 | Q -0.071 | P -0.291 | L -0.015 | N -0.169 | M -0.009 | C -0.069 | D -0.22 | Y -0.05 | F 0.016 | I -0.174
